Data on three molecules can be found in PMC11921379, “TK2268 encodes the major aminotransferase involved in the conversion from oxaloacetic acid to aspartic acid in Thermococcus kodakarensis” (Applied and Environmental Microbiology, 2025).

In data set [1] the target is T1, TK2268p (TK2268 protein) (Thermococcus kodakarensis, UniProt Q5JHU0).
T1 construct: full-length, C-terminal His6-tag, overexpressed homologously in T. kodakarensis, His GraviTrap and gel filtration
Put plainly: initial velocity, HPLC after o-phthalaldehyde derivatization; substrate inhibition fit. Format: biochemical. The settings on record: substrate inhibition constant, second site (second substrate binding to enzyme-substrate complex), 20 µM PLP, 50 mM HEPES pH 7.5, 80°C. From the text: (§1) initial velocity, HPLC after o-phthalaldehyde derivatization; substrate inhibition fit on TK2268p (TK2268 protein)

Substrate in data set [2]: N[C@@H](CC(=O)O)C(=O)O
Put plainly: purified protein. The settings on record: amino donor, 10 mM 2-oxoglutarate, 20 µM PLP, 50 mM HEPES pH 7.5, 80°C.

Substrate in data set [3]: O=C(O)CC(=O)C(=O)O
Kind of data set: purified protein. The class given is biochemical, Thermococcus kodakarensis. The note with it: amino acceptor, 4 mM glutamate, 20 µM PLP, 50 mM HEPES pH 7.5, 80°C, substrate inhibition model, Ks1 described as dissociation constant of first substrate.

Substrate in data set [4]: N[C@@H](CCC(=O)O)C(=O)O
Put plainly: initial velocity, HPLC after o-phthalaldehyde derivatization. The class given is biochemical, Thermococcus kodakarensis. The settings on record: amino donor, 10 mM oxaloacetate, 20 µM PLP, 50 mM HEPES pH 7.5, 80°C. From the text: initial velocity, HPLC after o-phthalaldehyde derivatization on TK2268p (TK2268 protein)

Substrate in data set [5]: O=C(O)CCC(=O)C(=O)O
Put plainly: initial velocity, HPLC after o-phthalaldehyde derivatization; substrate inhibition fit. The settings on record: amino acceptor, 10 mM Asp, 20 µM PLP, 50 mM HEPES pH 7.5, 80°C, substrate inhibition model, Ks1 described as dissociation constant of first substrate. Format: biochemical, Thermococcus kodakarensis.
Source text: as §1

For `O=C(O)CCC(=O)C(=O)O` [2-OG, 2-oxoglutarate], the “Km” value in data set [1] (10 mM Asp) amounted to 5.9 ± 1.6 mM.

Turning to `O=C(O)CC(=O)C(=O)O` [OAA, oxaloacetate], in data set [1] (4 mM glutamate), the “Km” value is reported as 13.2 ± 1.2 mM.

B1: TK2268p (TK2268 protein) (Thermococcus kodakarensis KOD1) (protein)
chain: MRYKKRKYFMAGRINILQRSKIRELFEKASKMENVISLGIGEPDFDTPEVIKEAAKRAIDEGYTHYTPNAGIPEFREAIAEYYKEFYNVDVDMNNIIVTAGAYEATYLAFESILEQGDDVIIPDPAFVCYVEDAKIAEAGIIRIPLREENKFRIDPDELLEAITKRTRMIVMNYPNNPTGAIMKKDVAKAIADIAQDYNIYILSDEPYEHFLYEGARHHPMIKYAPDNTILANSFSKTFAMTGWRLGFAIAPEQVIRDMIKLHAYVIGNVTSFIQIAGITALRDKRSWEAVERMRQVYDERRKLVLKYLNDMPHITPFRPKGAFYIWAKIDPELDMTSEDFAEWLLENAGVVVIPGTAFGRQGEGWIRISYATEKEKLIEAMERMKEALSKL
notes: full-length, C-terminal His6-tag, overexpressed homologously in T. kodakarensis, His GraviTrap and gel filtration
As for B1, in data set [2], the Km was 10.3 ± 0.5 mM, the Vmax was 232 µmol/min/mg, the turnover number (kcat) was 175 s⁻¹ and the kcat/Km is 17000 M⁻¹ s⁻¹. In data set [3], the Km stood at 1.3 ± 0.1 mM, the Vmax was 360 µmol/min/mg, the kcat amounted to 270 ± 16 s⁻¹ and the kcat/Km was 208000 M⁻¹ s⁻¹. In addition, in data set [4], the Km worked out at 3.4 ± 0.3 mM, the Vmax came out at 443 µmol/min/mg, the turnover number (kcat) stood at 333 ± 12 s⁻¹ and the kcat/Km came out at 97800 M⁻¹ s⁻¹. Further, in data set [5], the Michaelis-Menten constant (Km) came to 38.8 ± 9.6 mM, the Vmax was 1040 ± 230 µmol/min/mg, the kcat is 781 ± 244 s⁻¹ and the kcat/Km worked out at 20100 M⁻¹ s⁻¹.
